Data: patent US20230066984A1, “New Carbon Glycoside Glycosyltransferase and Use Thereof” (CAS Center for Excellence in Molecular Plant Sciences, priority 2020, published 2023)

test: In vitro functional identification of C-glycosyltransferases by HPLC, phloretin as glycosyl receptor; assay type: biochemical; details: 0.1 mM phloretin, 0.3 mM UDP glucose, crude enzyme, 37° C., 2 h, HPLC (FIG. 1A)
Procedure: The recombinant plasmid was transformed into competent cells of Escherichia coli BL21 (DE3), and cultured overnight at 37° C. in solid LB medium (kanamycin 50 μg/mL). Single colony was transferred to a 2 mL LB liquid medium (containing 50 μg/ml kanamycin) and incubated overnight. The bacterial fluid was transferred to a new 100 ml LB liquid medium with antibiotics and incubated at 37° C. and 250 r/min until OD600 reached 0.5-0.6. The culture was cooled down to 16° C. in a water bath. Then inducer IPTG was added at a final concentration of 0.1 mM. The mixture was cultured at 16° C. for low temperature induction and 180 r/min for 20 h. The BL21(DE3) recombinant strain carrying the pET28a empty plasmid was used as a blank control, and the culture operation was the same as above. The bacteria were harvested by centrifugation (6000 r/min, 5 min), re-suspended in 1 mL of lysis buffer Buffer A (20 mM Tris-HCl, pH 8.0; 100 mM NaCl), and DNase was added to a final concentration of 5 μg/mL, Mg^2+ to a final concentration of 2 mM; protease inhibitor PMSF to a final concentration of 1 mM; the bacteria were incubated on ice for 30 min and then sonicated; refrigerated centrifugation (10,000 rpm, 30 min, 4° C.), filtered through a 0.2 µm filter membrane to obtain the supernatant crude enzyme solution, and added 20% glycerol for cryopreservation (−20° C.).
The in vitro enzyme catalytic assay system is 100 μL. The reaction system includes: 0.1 mM glycosyl receptor (phloretin or 2-hydroxynaringenin), 0.3 mM UDP glucose, 25 μL supernatant crude enzyme solution, and Buffer A is used to make up the volume to 100 μL, and react at 37° C. for 2 h. After the reaction was completed, an equal volume of methanol was added to terminate the reaction, and HPLC was used for product analysis. HPLC detection conditions: chromatographic column: reverse phase C18 column [SilGreen ODS column (ø 4.6×250 mm)], detection wavelength 280 nm; mobile phase: acetonitrile (0.1% formic acid)-water (0.1% formic acid) mixture gradient elution, with increased ratio from 5:95 to 100:0 within 0 to 20 min, and the flow rate was 1 mL/min.

Molecule	conversion of substrate phloretin to C-glycosylated product (Nothofagin)	5′ C-glycosylation of 3′-glycosylated phloretin giving phloretin-3′,5′-C-diglucoside
TaCGT2-A: C-glycosyltransferase from wheat, SEQ ID NO: 11 (protein, listed as Triticum aestivum) MASSSRDDRAGAAAPRPRIVLLPSAGMGHLAPFSRLAAALSSGHACDVSLVTVLPTVSSAESGQLDALFAAFPAVRRLDFHLPPLDAPELSGADPFYVHYEATRRSARLLAPLLAAADASALIADISLASVLIPVASELRLPCYVFFTASATMFSFYAYYPTYLDATGAGDADVPGVYRIPKSSFPQALHDRNNLFTQQFVANGRSLSKADGLLINTFDDLEPEAVTALRQGSVVPGFPPVFTVGPLSPVSFPARASSDYSAWLDAQPERSVVYVSFGSRKALARDQLSELADGLEASGCRFLWVVKGAVVDKDDGAELSELLGEGFLQRVSGRALVTKAWVEQGEVLKHPAIGMFVSHCGWNSLTEAFATGVPVLAWPRFADQRVNAGIVARCGAGVWVERWSWEGDDGVVKGEEIAEKVKSVMADEMLRRSSTVVREAATTAVAGGGTSYRSLAELVARCCHGSALQ	can convert the substrate phloretin to a product having a shorter retention time	–
SiCGT1: C-glycosyltransferase from millet, SEQ ID NO: 17 (protein, listed as Setaria italica) MPTSGDHSGARPHVVLLPSAGMGHLVPFGRLAVALSAGHGCDVSVAAVLPTVSSAEARHLEALFAAADPAVRRLDFRLAPFDASEFPGADPFFLRFEAMRRSAPLLGPLLATAGASAVVTDIVLASVVLPVARECGVPCYVLFTASAAMLAFCAHFPGYLDANSAAGRAGVVGDVDIPGVYRIPKSSVPQALHDPKHLFTQQFVANGRGLVDADGILVNTFDALEPEAVTALRKGKVVSSFPLVFAVGPLLPVMFPAKDPAGYMQWLDAQPARSVVYVSFGSRTAISPDQLLELAAGLEASGHRFLWVVKSTVVDRDDAGELGDLLGHGFLERVRGRALVTKGWVEQEEILQHGSVGLFVSHCGWNSVTEAAAFGVPVLAWPRFGDQRINAAVVTRGGLGAWEERWSWDGEEGLVSGEEVGEKIKAVMADETVAKKAAAVGDAAAAAATSKGGTSYRSLAEFVGRCRDAGSRQDR	can convert the substrate phloretin to a product having a shorter retention time	can catalyze the glycosylation of the 3′-glycosylated phloretin at the 5′ position
BdCGT1: C-glycosyltransferase from Brachypodium distachyo, SEQ ID NO: 16 (protein, Brachypodium distachyon) MPTSGDGPTSQPHVVLLPSAGMGHLVPFSRLAVALSSAHGCDVSLVTVLPTVSSAESSHLEALFGAFPAVRRLEFHLADFDASEFPNADPFFLRFEAMRRSAPLLLGPLLARASATALVTDIALSSVVIPVAKQLRLPCYVLFTASAAMLSLCVHFPAYLDANGNGLVGDVDIPGVYQIPKASVPQALHDPKHLFTRQFVANGRELAKSDGVLVNSFDAFEPEAIAALREGAVSAAGFFPPVFSVGPLAPVSFPAGNNNRADYIQWLEAQPARSVVYVSFGSRKAVARDQLRELAAGLEASGHRFLWVVKSTVVDRDDDADLGELLGEGFLERVQGRGMVTKGWVEQEDVLKQESVGLFISHCGWNSVTEAAAGGLPVLAWPRFGDQRVNAGVVARSGLGVWVDSWSWEGEEGVVSGESIAEKVKAVMGDEIARNKAVSVRDAAAKAVADGGTSYRNLARFAQRCRDGRVRE	can convert the substrate phloretin to a product having a shorter retention time	–
TaCGT2-B: C-glycosyltransferase from wheat, SEQ ID NO: 12 (protein, listed as Triticum aestivum) MASSPRDDRAGAAAPRPRIVLLPSASMGHLAPFSRLAAALSSGHACDVSLVTVLPTVSSAESGQLDALFAAFPAVRRLDFQLPPLDAPELSGADPFYVHYEATRRSARLLAPLLAAADASVLVADISLASVLIPVASELRLPCYVFFTASATMFSFYAYYPTYLDAAGAGDADVPGVYRIPKSSFPQALHDRNNLFTQQFVANGRSLSKADGLLINTFDALEPEAVTALRQGSVVPGCPPVFTVGPLSPVSFPARASADYSACLDAQPERSVVYVSFGSRKALARDQLSELADGLEASGCRFLWVVKGAVVDKDDGAELSELLGEGFLQRVSGRALVTKAWVEQGEVLKHPAIGMFVSHCGWDSLTEAFATGVPVLAWPRFADQRVNAGIVARCGAGVWVERWSWEGDEGVVKGEEIAEKVKSVMANEMLRRSSTMVREAAMTAVAGGGTSYRSLAELVARCCDGSASQ	can convert the substrate phloretin to a product having a shorter retention time	–
TaCGT2-D: C-glycosyltransferase from wheat, SEQ ID NO: 13 (protein, listed as Triticum aestivum) MASSSRDDRAGAAAPRPRIVLIPSAGMGHLAPFSRLAAALSSGHTCNVSLVTVLPTVSSAESGHLDALFAAFPAVRRLDFQLPPLDAPELSGADPFYVHYEATRRSARLLAPLLAAADASALVADISLASVLIPVASELRLPCYVFFTASATMFSFYAYYPTYLDAAGAGDADVPGVYRIPKSSFPQALHDRNNLFTQQFVANGQSLSKADGLLINTFDALEPEAVTALRQGSVVPGFPPVFNVGPLSPVSFPARASSDYSAWLDAQPERSVVYVSFGSRKALARDQLSELADGLEASGCRFLWVVKGTVVDKDDGAELSELLGEGFLQRVSGRALVTKAWVEQGEVLKHPAIGMFVSHCGWNSLTEAFASGVPVLAWPRFADQRVNAGIVARRGAGVWVERWSWEGDDGVVKGEEIAEKVKSVMADEMLRRSSTVVREAAMTAVAGGGTSYRSLAELVARCCDGSASNAPSEA	can convert the substrate phloretin to a product having a shorter retention time	–
TaCGT1-D: C-glycosyltransferase from wheat, SEQ ID NO: 10 (protein, listed as Triticum aestivum) MPTSGDASGALPHPHVVLLPSAGMGHLVPFSRLAVSLSSPGHGCGVSVATVLPTVSSAESAHLDALFGACPAVRRLDFHLAPFDASEFPGADPFFLRFEAMRRSAPLLGPLLAGAGASALVTDIALASVVIPVARDLRLPCYVLFTASAAMLSLCVHFPAYLDANAGGPVGDVGIPGVYRVPKASIPQALHHPEHLFTQQFVANGRELAKADGLLVNSFDAFEPEAIAALRNGSVAAGFPPVFSVGPLAPVSFSASEPPENQADYMRWLEAQPARSVVYVSFGSRKAISKDQLRELAVGLEASGHRFLWVVKSTVVDRDDEAELSELLGEGFLERVQGRGMVTKGWVEQEEVLKQESIGLFISHCGWNSVTEAAANGLPVLAWPRFGDQRVNAGVVARSGLGVWEERWSWEGEEGTVSGHNIAEKVKTVMADKTVRNKAVSVQDAAAEAVADGGTSYRSLAQFVQRCRDLSVSK	can convert the substrate phloretin to a product having a shorter retention time	can catalyze the glycosylation of the 3′-glycosylated phloretin at the 5′ position
ZmCGT4: C-glycosyltransferase from maize, SEQ ID NO: 14 (protein, Zea mays) MSSPAPSSASRSSHGSRGSPRIVLFPSAGMGHLVPFTRLAVALSAGHGCEISLLTALPTVSSAESRHIAALYAAFPAIRQLDLRFAPFDASSEFPGADPFYLRYEALRRCAPSLLGPLLAGAGASALVVDMALASVAIPVARELHVPCFVFFTASATMLSFKAYFPTYLDDVGAGHGVGDVDVPGVYRIPSSSVPQALHDPDNIFTRQFVANGRALATADGLLVNAFHAMEPEAVEALQGRFVLSVLPPVFAVGPLMPVNDLRETGEAAQKQGNYRAWLDEQPPRSVVYVSFGSRKALPKDQIKELAAGLEACGHRFLWVVKGAVVDRDDAGELSELLGEAFLRRVHGRGLVTKSWVEQEEVLRHPAVALFVSHCGWNSVTEAVSSGVPVLAWPRFADQRVNARVVVRCGLGVWADQWSWEGEEALVRAEEITALVMEAMEDDAMAVKAANVREAASRAVVDGGTSYRSLAAFVRRCTA	can convert the substrate phloretin to a product having a shorter retention time	–
ZmCGT5: C-glycosyltransferase from maize, SEQ ID NO: 15 (protein, Zea mays) MSSPAPSSPSRSSHGSRSSPRIVLFPSAGMGHLVPFTRLAVALSAGHGCDISLVTALPTVSSAESRHIAALYAAFPAIRQLDLRFAPFDASSEFPGADPFYLRYEALRRCAPSLLGPLLAGAGASALVVDMALASVAIPVARELHVPCFVFFTASATMLSFKAYFPTYLDDVGAGHGVGDVDVPGVYRIPSSSVPQALHDPDNIFTRQFVANGRALATADGLLVNAFHAMEPEAVEALQGRFVLSVLPPVFAVGPLMPVNDLRETGEAAQKQGNYRAWLDEQPPRSVVYVSFGSRKALPKDQIKELAAGLEACGHRFLWVVKGAVVDRDDAGELSELLGEAFLRRVHGRGLVTKSWVEQEEVLRHPAVALFVSHCGWNSVTEAVSSGVPVLAWPRFADQRVNARVVVRCGLGVWADQWSWEGEEALVRAEEITALVMEAMEDDAMAVKAANVREAASRAVVDGGTSYRSLAAFVRRCTA	can convert the substrate phloretin to a product having a shorter retention time	–
